Measurements: the nanobody polyreactivity screen of Harvey et al. (2022)

Assay: yeast display, Sf9 membrane polyspecificity reagent, FACS + sequencing; frameworks hold sequencing errors
How it was run: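 A synthetic nanobody library was expressed on Saccharomyces cerevisiae BJ5465 by galactose induction for 36–48 hours. The library was stained for 1 hour at 4 °C with 10% biotinylated, detergent-solubilized Sf9 membrane reagent and enriched with streptavidin microbeads before FACS. Low and high (top ~1%) gates were set on anti-HA fluorescence for expression and streptavidin fluorescence for reagent binding, and each polyreactivity label reflects the gate of origin.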

Sequence | polyreactivity (PSR sort gate)
QVQLVESGGGLVQAGGSLRLSCAASGFTLYSYAMGWYRQAPGKERELVARISRSGGRTYYADSVKGRFTISRDNAKNTVYLQMNSLKPEDTAVYYGNARSLYYSYDYWGQGTQVTVSS | high polyreactivity
QVQLVESGGGLVQAGGSLRLSCAASGFTLYYYAMGWYRQAPGKERELVAAIRSGGRTYYADSVKGRFTISRDNAKNTVYLQMNSLKPEDTAVYYCAARYRVYRGSRGITDYGYWGQGTQVTVSS | high polyreactivity
QVQLVESGGGLVQAGGSLRLSCAASGFTSAVYAMGWYRQAPGKERELVAAIRRGGSTNYADSVKGRFTISRDNAKNTVYLQMNSLKPEDTAVYYCAAAGRGWFGYWGQGTQVTVSS | high polyreactivity
QVQLVESGGGLVQAGGSLRLSCAASGFTSAYNAMGWYRQAPGKERELVATISFRGSSTYYADSVKGRFTISRDNAKNTVYLQMNSQKPEDTAVYYCAADPYDARAVSEPVFFGHYDFWGQGTQVTVSS | low polyreactivity
QVQLVESGGGLVQAGGSLRLSCAASGFTSGYNAMGWYRQAPGKERELVATITRGTRTYYADSVKGRFTISRDNAKNTVYLQMNSLKPEDTAVYYCNARVYYKTYGGYYSWGQGTQVTVSS | high polyreactivity
QVQLVESGGGLVQAGGSLRLSCAASGFTSNEYAMGWYRPAAGTERELVAAISKSGGRTYYADSVKGRFTISRDNAKNTVYLQMNSLKPEDTAVYYCGKRRNTTYYAGGFDYWGQGTKVTVSS | high polyreactivity
QVQLVESGGGLVQAGGSLRLSCAASGFTSWDIDMGCYRQAPGIEREMVAAITGGGTTNYADSVKGRFTISRDNAKNTVYLQMNSLKPEDTAVYYCAAKPWWYSGYDYWGQGTQVTVSS | low polyreactivity
QVQLVESGGGLVQAGGSLRLSCAASGFTSYLYTMGWYRQAPGKERELVAAISNSGGNTYYADSVKGRFTISRDNAKNTVYLQMNSLKPEDTAVYYCAARLFAAKYRYGYWGQGTQVTVSS | high polyreactivity
QVQLVESGGGLVQAGGSLRLSCAASGFTSYTNAMGWYRQAPGKERELVAAIDVSGSDTYYADSVKGRFTISRDNAKNTVYLQMNSLKPEDTAVYYCAAEYYSYYYQGYDYWGQGTQVTVSS | high polyreactivity
QVQLVESGGGLVQAGGSLRLSCAASGFTVAIYAMGWYRHAPGKERELVAAINRCGGSTYYADSVKGRFTISRDNAKNSVYLQMNSLKTEDTAVYYCNKRYRVWFDYWGQGTQVTVSS | high polyreactivity
QVQLVESGGGLVQAGGSLRLSCAASGFTVDLYAMGWYRQAPGKERELVAAITSSGGSTYYADSVKGRFTISRDNAKNTVYLQMNSLTPEDTAVYYCAVAYSSHTSYYSWGQGTQVTVSS | low polyreactivity
QVQLVESGGGLVQAGGSLRLSCAASGFTVHDYAMGWYRQAPGKERELVAAISFSGGRTYYADSVKGRFSISRDNAKNTVYLQMNSLKPEDTAVYYCNAKGQRIKRWRGYWGQGTQVTVSS | high polyreactivity
QVQLVESGGGLVQAGGSLRLSCAASGFTVIDYAMGWYSQAPGKERELVAAITTGTITYYADSVTGRFTISRDNAKNTVYLQMNSLKPEDTAVYYCNADWLTLATTMNYWGQGTQVTVSS | low polyreactivity
QVQLVESGGGLVQAGGSLRLSCAASGFTVSAYALGWYRQAPGKERELVAAISTRGGSTRYADSVKGRFTISRDNAKNTVYLQMNSLKPEDTAVYYCAADTRSFYRYDYWGQGTQVTVSS | high polyreactivity
QVQLVESGGGLVQAGGSLRLSCAASGFTYDSYAMRWYRQAPGKERELVAAITRRGGSTYYADSVKGRFTISRDNAKNTVYLQMNSLKPEDTAVYYCATLRLRSLGQRNYWGQGTQVTVSS | high polyreactivity
QVQLVESGGGLVQAGGSLRLSCAASGFTYGRYAMGWYRQAPRKERELVAAISFSGGRTYYADSVKGRFTISRDNAKNTVYLQMKSLKPEDTAVYYCAARRRQEHVGRSSYARYDYWGQGTQVTVSA | high polyreactivity
QVQLVESGGGLVQAGGSLRLSCAASGFTYHVYAMGWYRQAPGKERELVAAISTGDDTTFYADSVKGRFTISRDNAKNTVYLQMNSLKPEDSAVYYCAAEYQVEYYYTTNFLTTYDYWGQGTQVTVSS | low polyreactivity
QVQLVESGGGLVQAGGSLRLSCAASGFTYKYYAMGWYRQAPGKERELVAAISGSGGRTYYADSVKGRFTISRDNAKNTVYLQMNSLKPEDTAVYYCAAVYLVTRGARYDYWGQGTQVTVSS | high polyreactivity
QVQLVESGGGLVQAGGSLRLSCAASGFTYPANAMGWYRQAPGKERELVASISGSGGRTYYADSVKGRFTISRDNAQNTVYLQMNSLKPEDTAVYYCNRYSYWYRGEYGYWGQGTQVTVSS | high polyreactivity
QVQLVESGGGLVQAGGSLRLSCAASGFTYRVNAMGWYRQATGKERELVAAITVSDGRTYYADSVKGRFTISRDNAKNTVYLQMNSLKPEDTAVYYCAADYKGAFTTDWSSEYEYWGQGTQVTVSS | low polyreactivity
QVQLVESGGGLVQAGGSLRLSCAASGFTYSKNAMGWDRQAPAKERELVAVITRRGGSTYYADSVKGRFTISRDNAKNTVYLQMNSLKPEDTAVYYCAAASFTRRDLDYWGQGTQVTVSS | high polyreactivity

Sequence | polyreactivity (PSR sort gate)
QVQLVESGGGLVQAGGSLRLSCAASGFTYSLYDMGWYRQAPGKERELVAAISSDGSTNYADSVKGRFTISRDNAKNTVYLQMNSLKPEDTAVYYCAADETFLSYWLNYWGQGTQVTVSS | low polyreactivity
QVQLVESGGGLVQAGGSLRLSCAASGFYNTMGWYRQAPRKERELVAAISTGGMTNYADSVKGRFTISRDNAKNTVYLQMNSLKPVDTAVYYCAADGYSTVYSTYDYWGQGTQVTVSS | low polyreactivity
QVQLVESGGGLVQAGGSLRLSCAASGGIFADYAMGWYRQAPGKERELVAAISSGGNTNYADSVKGRFTISRDNAKNTVYLQMNSLKPEDTAVYYCNRDTSYYRYVYYEGNDYWGQGTQVTVSS | low polyreactivity
QVQLVESGGGLVQAGGSLRLSCAASGGIFAYYAMGWYRQAPGKERELVAAITSRGGRTYYADSVKGRFTISRDNAKNTVYFQMNSLKPEDTEVYYCNAERFWPWDYDYWGQGTQVTVSS | high polyreactivity
QVQLVESGGGLVQAGGSLRLSCAASGGIFDIYAMGWYRQAPGKERELVAANRGSGGRTYYADSVKGRFTISRDNAKNTVYLQMNSLKPEDTAVYYCAARPSIVTGLRYGYWGQGTQVTVSS | high polyreactivity
QVQLVESGGGLVQAGGSLRLSCAASGGIFDPYAMGWYRQAPGKERELVAAITNSGGSTYYADSVKGRFTISRDNAKNTVYLQMNSLKPEDTAVYYCAAEGLYVGYDYWGQGTQVTVSS | low polyreactivity
QVQLVESGGGLVQAGGSLRLSCAASGGIFDTNAMGWYRQAPGKEREFVAAITGSGGSTYYADSVKGRFTISRDYAKNSVYLQMNSLKPEDTAVYYCAAPLSYYWVFIVRYGYDYWGQGTQVTVSS | low polyreactivity
QVQLVESGGGLVQAGGSLRLSCAASGGIFDTYAMGWYRQAPGKERELVAAISRRGGNTYYADSVKGRFTISRDNAKNTVYLQMNSLKPEDTAVYYCAAYYHGRMDYWGQGTQVTVSS | high polyreactivity
QVQLVESGGGLVQAGGSLRLSCAASGGIFGANSMGWYRQAPGKERELVATITRGGSTNYADSVKGRFTISRDNAKNTVYLQMNSLKTEDTAVYYCAARFYSRAFWPAYYYWGQGTQVTVSS | high polyreactivity
QVQLVESGGGLVQAGGSLRLSCAASGGIFGFNAMGWYRPAPGKERELVADISDGVRTNYADSVKGRFTISRDNAKNTVYLQMNSLKPEDTAVYYCATDGLFLAWAPLGALAFDYWGQGTQVTVSS | low polyreactivity
QVQLVESGGGLVQAGGSLRLSCAASGGIFGGNAMGWYRQAPGQERELVAAISRSSGSTYYADSVKGRFTISRDNAKNTVYLQMNSLKPEDSAVYYCNVEGYGRRFDYWGQGTQVTVSS | high polyreactivity
QVQLVESGGGLVQAGGSLRLSCAASGGIFGLYAMGWYRQAPGKERELVAAISWSGGSTYYADSVKGRFTISRDNAKNTVYLQMNSLKPEDTAVYYCAAEWDTNFWYDYWGQGTQVTVSS | low polyreactivity
QVQLVESGGGLVQAGGSLRLSCAASGGIFGLYTMGWYRQAPGKERELVAGISKRGTRTRYADSVKGRFTISRDHAKNTVYLQMNSLKPEDTAVYYCNADYYVSKLDYWGQGTQVTVSS | high polyreactivity
QVQLVESGGGLVQAGGSLRLSCAASGGIFGRYDMGWYRQAPGKERELVAAISKRGGSTYYADSVKGRFTISRDNAKNTVYLQMNSLKPEDTAVYYCNAAQSVELGYDYWGQGTQGTVSS | high polyreactivity
QVQLVESGGGLVQAGGSLRLSCAASGGIFGSYAMGWYRQAPGKERELVADITQSGGRTRYADSVKGRFTISRDNAKNTVYLQMNSLKPEDSAVYYCNAQDVDSGDDYDYWGQGTQVTVSS | low polyreactivity
QVQLVESGGGLVQAGGSLRLSCAASGGIFGYYAMGWYRQAPGKEREFVAAISVSGGSTYYADSVKGRFTISRDNAKNTVYLQMNSLKPEDTAVYYCAADVIVLRPGEYDYWGQGTQVTVSS | low polyreactivity
QVQLVESGGGLVQAGGSLRLSCAASGGIFGYYAMGWYRQAPGTEREFVAAITARGGRTYYADSVKGRFTISRDNAKNTVYLQMNSLKPEDTAVYDCAAYSPVWGRYYHRVERDYWGQGTQVTVSS | high polyreactivity
QVQLVESGGGLVQAGGSLRLSCAASGGIFGYYVMGRYRQAPGKERELVAVITRGGSTNYADSVKGRFTISRDNAKNTVYLQMNSLKPEDTAVYYCAKDVPYRRVRSEYWGQGTQVTVSS | low polyreactivity
QVQLVESGGGLVQAGGSLRLSCAASGGIFGYYVMGWYRQAPGKERELVAVITRGGSTNYADSLKGRFTISRDNAKNTVYLQMNSLKPEDTAVYYCNAGPAGYYDYDYWGQGTQVTVSS | low polyreactivity
QVQLVESGGGLVQAGGSLRLSCAASGGIFHNYAMGWYRQAPGKERELVAAITTSDGSTYYEDSVKGRFTISRDIAKNTVYLEMNSLKPEDTAVYYCNAEYLYTVYFDDGGFIMDYWGQGTQVTVSS | low polyreactivity
